Experimental data from patent US20250084176A1.

Target: mouse CD137, full length, on cells (mouse) (UniProt P20334)
Experiment: cell-based or functional assay

Chain of mouse CD137, full length, on cells (mouse) (P20334 24-256): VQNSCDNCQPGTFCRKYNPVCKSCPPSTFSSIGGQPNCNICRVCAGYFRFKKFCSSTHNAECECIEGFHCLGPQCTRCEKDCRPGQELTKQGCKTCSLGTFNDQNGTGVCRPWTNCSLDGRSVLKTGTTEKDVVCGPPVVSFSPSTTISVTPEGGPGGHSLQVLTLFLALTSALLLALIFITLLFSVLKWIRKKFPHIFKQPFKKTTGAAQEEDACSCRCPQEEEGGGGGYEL

- IL-2 release, mouse CD137 DO11.10 T cell activation assay, Protein L: +XL EC50: 2.26 nM
- IL-2 release, mouse CD137 DO11.10 T cell activation assay, Protein L: +XL Emax: 21300 pg/mL
Substance: G1-AA/Lob12.3 (antibody)
